Experimental data published in the supplement of paper PMC5998384.

Legend:
[1] = tested on: HeLa Kyoto; experiment: thermal stability score vs G1/S (z-score of summed log2 fold changes over temperatures); higher = more thermally stable than in G1/S
[2] = tested on: HeLa Kyoto; experiment: melting temperature (median over replicates), in situ; higher = more thermally stable
[3] = tested on: HeLa Kyoto; experiment: solubility change mitosis vs G1/S (difference of NP-40 vs SDS log2 ratios) (log2 ratio difference); higher = more soluble in mitosis
[4] = tested on: HeLa Kyoto; experiment: solubility in G1/S (NP-40 vs SDS abundance) (log2 ratio); higher = more soluble; conditions: cell cycle stage: G1/S
[5] = cell cycle stage: early G1 (4.5 h after nocodazole release)
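Wherever melting temperature (median over replicates), in situ is given: HeLa Kyoto cells synchronized by double thymidine or nocodazole block, proteins quantified by TMT10plex mass spectrometry, three independent biological replicates.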
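Wherever solubility change mitosis vs G1/S (difference of NP-40 vs SDS log2 ratios) is given: synchronized HeLa Kyoto cells (double thymidine block for G1/S, nocodazole release for mitosis), protein amounts in NP-40 versus SDS lysates quantified by mass spectrometry, three biological replicates.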
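Wherever solubility in G1/S (NP-40 vs SDS abundance) is given: HeLa Kyoto cells arrested at G1/S by double thymidine block, proteins quantified by TMT10plex mass spectrometry in mild NP-40 versus SDS extracts, three biological replicates.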
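Wherever thermal stability score vs G1/S (z-score of summed log2 fold changes over temperatures) is given: synchronized HeLa Kyoto cells, proteins quantified by TMT10plex mass spectrometry, three biological replicates, mitosis taken 0.5 h after nocodazole release, G1/S directly after double thymidine block.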

Row | Sequence | thermal stability score [1, 5] | thermal stability score ([1]; cell cycle stage: mitosis) | melting temperature ([2]; cell cycle stage: G1/S) | melting temperature ([2]; cell cycle stage: mitosis) | solubility change mitosis (log2) [3] | solubility in G1/S (log2) [4]
1 | MPAERPAGSGGSEAPAMVEQLDTAVITPAMLEEEEQLEAAGLERERKMLEKARMSWDRESTEIRYRRLQHLLEKSNIYSKFLLTKMEQQQLEEQKKKEKLERKKESLKVKKGKNSIDASEEKPVMRKKRGREDESYNISEVMSKEEILSVAKKNKKENEDENSSSTNLCVEDLQKNKDSNSIIKDRLSETVRQNTKFFFDPVRKCNGQPVPFQQPKHFTGGVMRWYQVEGMEWLRMLWENGINGILADEMGLGKTVQCIATIALMIQRGVPGPFLVCGPLSTLPNWMAEFKRFTPDIPTMLYHGTQEERQKLVRNIYKRKGTLQIHPVVITSFEIAMRDRNALQHCYWKYLIVDEGHRIKNMKCRLIRELKRFNADNKLLLTGTPLQNNLSELWSLLNFLLPDVFDDLKSFESWFDITSLSETAEDIIAKEREQNVLHMLHQILTPFLLRRLKSDVALEVPPKREVVVYAPLSKKQEIFYTAIVNRTIANMFGSSEKETIELSPTGRPKRRTRKSINYSKIDDFPNELEKLISQIQPEVDRERAVVEVNIPVESEVNLKLQNIMMLLRKCCNHPYLIEYPIDPVTQEFKIDEELVTNSGKFLILDRMLPELKKRGHKVLLFSQMTSMLDILMDYCHLRDFNFSRLDGSMSYSEREKNMHSFNTDPEVFIFLVSTRAGGLGINLTAADTVIIYDSDWNPQSDLQAQDRCHRIGQTKPVVVYRLVTANTIDQKIVERAAAKRKLEKLIIHKNHFKGGQSGLNLSKNFLDPKELMELLKSRDYEREIKGSREKVISDKDLELLLDRSDLIDQMNASGPIKEKMGIFKILENSEDSSPECLF [HELLS] | 1.77 | 3.02 | 46.2 °C | 48.2 °C | 0.252 | -0.204
2 | MPAHLLQDDISSSYTTTTTITAPPSRVLQNGGDKLETMPLYLEDDIRPDIKDDIYDPTYKDKEGPSPKVEYVWRNIILMSLLHLGALYGITLIPTCKFYTWLWGVFYYFVSALGITAGAHRLWSHRSYKARLPLRLFLIIANTMAFQNDVYEWARDHRAHHKFSETHADPHNSRRGFFFSHVGWLLVRKHPAVKEKGSTLDLSDLEAEKLVMFQRRYYKPGLLMMCFILPTLVPWYFWGETFQNSVFVATFLRYAVVLNATWLVNSAAHLFGYRPYDKNISPRENILVSLGAVGEGFHNYHHSFPYDYSASEYRWHINFTTFFIDCMAALGLAYDRKKVSKAAILARIKRTGDGNYKSG [SCD] | 1.76 | -0.899 | 50.5 °C | 51.2 °C | -0.151 | -0.126
3 | MPAPEQASLVEEGQPQTRQEAASTGPGMEPETTATTILASVKEQELQFQRLTRELEVERQIVASQLERCRLGAESPSIASTSSTEKSFPWRSTDVPNTGVSKPRVSDAVQPNNYLIRTEPEQGTLYSPEQTSLHESEGSLGNSRSSTQMNSYSDSGYQEAGSFHNSQNVSKADNRQQHSFIGSTNNHVVRNSRAEGQTLVQPSVANRAMRRVSSVPSRAQSPSYVISTGVSPSRGSLRTSLGSGFGSPSVTDPRPLNPSAYSSTTLPAARAASPYSQRPASPTAIRRIGSVTSRQTSNPNGPTPQYQTTARVGSPLTLTDAQTRVASPSQGQVGSSSPKRSGMTAVPQHLGPSLQRTVHDMEQFGQQQYDIYERMVPPRPDSLTGLRSSYASQHSQLGQDLRSAVSPDLHITPIYEGRTYYSPVYRSPNHGTVELQGSQTALYRTGSVGIGNLQRTSSQRSTLTYQRNNYALNTTATYAEPYRPIQYRVQECNYNRLQHAVPADDGTTRSPSIDSIQKDPREFAWRDPELPEVIHMLQHQFPSVQANAAAYLQHLCFGDNKVKMEVCRLGGIKHLVDLLDHRVLEVQKNACGALRNLVFGKSTDENKIAMKNVGGIPALLRLLRKSIDAEVRELVTGVLWNLSSCDAVKMTIIRDALSTLTNTVIVPHSGWNNSSFDDDHKIKFQTSLVLRNTTGCLRNLSSAGEEARKQMRSCEGLVDSLLYVIHTCVNTSDYDSKTVENCVCTLRNLSYRLELEVPQARLLGLNELDDLLGKESPSKDSEPSCWGKKKKKKKRTPQEDQWDGVGPIPGLSKSPKGVEMLWHPSVVKPYLTLLAESSNPATLEGSAGSLQNLSAGNWKFAAYIRAAVRKEKGLPILVELLRMDNDRVVSSVATALRNMALDVRNKELIGKYAMRDLVNRLPGGNGPSVLSDETMAAICCALHEVTSKNMENAKALADSGGIEKLVNITKGRGDRSSLKVVKAAAQVLNTLWQYRDLRSIYKKDGWNQNHFITPVSTLERDRFKSHPSLSTTNQQMSPIIQSVGSTSSSPALLGIRDPRSEYDRTQPPMQYYNSQGDATHKGLYPGSSKPSPIYISSYSSPAREQNRRLQHQQLYYSQDDSNRKNFDAYRLYLQSPHSYEDPYFDDRVHFPASTDYSTQYGLKSTTNYVDFYSTKRPSYRAEQYPGSPDSWV [PKP4] | -0.193 | -0.925 | 50.6 °C |  | 0.0763 | -0.319
4 | MPATRKPMRYGHTEGHTEVCFDDSGSFIVTCGSDGDVRIWEDLDDDDPKFINVGEKAYSCALKSGKLVTAVSNNTIQVHTFPEGVPDGILTRFTTNANHVVFNGDGTKIAAGSSDFLVKIVDVMDSSQQKTFRGHDAPVLSLSFDPKDIFLASASCDGSVRVWQISDQTCAISWPLLQKCNDVINAKSICRLAWQPKSGKLLAIPVEKSVKLYRRESWSHQFDLSDNFISQTLNIVTWSPCGQYLAAGSINGLIIVWNVETKDCMERVKHEKGYAICGLAWHPTCGRISYTDAEGNLGLLENVCDPSGKTSSSKVSSRVEKDYNDLFDGDDMSNAGDFLNDNAVEIPSFSKGIINDDEDDEDLMMASGRPRQRSHILEDDENSVDISMLKTGSSLLKEEEEDGQEGSIHNLPLVTSQRPFYDGPMPTPRQKPFQSGSTPLHLTHRFMVWNSIGIIRCYNDEQDNAIDVEFHDTSIHHATHLSNTLNYTIADLSHEAILLACESTDELASKLHCLHFSSWDSSKEWIIDLPQNEDIEAICLGQGWAAAATSALLLRLFTIGGVQKEVFSLAGPVVSMAGHGEQLFIVYHRGTGFDGDQCLGVQLLELGKKKKQILHGDPLPLTRKSYLAWIGFSAEGTPCYVDSEGIVRMLNRGLGNTWTPICNTREHCKGKSDHYWVVGIHENPQQLRCIPCKGSRFPPTLPRPAVAILSFKLPYCQIATEKGQMEEQFWRSVIFHNHLDYLAKNGYEYEESTKNQATKEQQELLMKMLALSCKLEREFRCVELADLMTQNAVNLAIKYASRSRKLILAQKLSELAVEKAAELTATQVEEEEEEEDFRKKLNAGYSNTATEWSQPRFRNQVEEDAEDSGEADDEEKPEIHKPGQNSFSKSTNSSDVSAKSGAVTFSSQGRVNPFKVSASSKEPAMSMNSARSTNILDNMGKSSKKSTALSRTTNNEKSPIIKPLIPKPKPKQASAASYFQKRNSQTNKTEEVKEENLKNVLSETPAICPPQNTENQRPKTGFQMWLEENRSNILSDNPDFSDEADIIKEGMIRFRVLSTEERKVWANKAKGETASEGTEAKKRKRVVDESDETENQEEKAKENLNLSKKQKPLDFSTNQKLSAFAFKQE [WDHD1] | 2.58 | 6.16 | 47.9 °C | 49.6 °C | -0.0991 | -0.1
5 | MPAVDKLLLEEALQDSPQTRSLLSVFEEDAGTLTDYTNQLLQAMQRVYGAQNEMCLATQQLSKQLLAYEKQNFALGKGDEEVISTLHYFSKVVDELNLLHTELAKQLADTMVLPIIQFREKDLTEVSTLKDLFGLASNEHDLSMAKYSRLPKKKENEKVKTEVGKEVAAARRKQHLSSLQYYCALNALQYRKQMAMMEPMIGFAHGQINFFKKGAEMFSKRMDSFLSSVADMVQSIQVELEAEAEKMRVSQQELLSVDESVYTPDSDVAAPQINRNLIQKAGYLNLRNKTGLVTTTWERLYFFTQGGNLMCQPRGAVAGGLIQDLDNCSVMAVDCEDRRYCFQITTPNGKSGIILQAESRKENEEWICAINNISRQIYLTDNPEAVAIKLNQTALQAVTPITSFGKKQESSCPSQNLKNSEMENENDKIVPKATASLPEAEELIAPGTPIQFDIVLPATEFLDQNRGSRRTNPFGETEDESFPEAEDSLLQQMFIVRFLGSMAVKTDSTTEVIYEAMRQVLAARAIHNIFRMTESHLMVTSQSLRLIDPQTQVSRANFELTSVTQFAAHQENKRLVGFVIRVPESTGEESLSTYIFESNSEGEKICYAINLGKEIIEVQKDPEALAQLMLSIPLTNDGKYVLLNDQPDDDDGNPNEHRGAESEA [APPL2] | -0.102 | 0.993 | 49.1 °C | 49.5 °C | -0.0416 | 0.193
6 | MPAVSKGDGMRGLAVFISDIRNCKSKEAEIKRINKELANIRSKFKGDKALDGYSKKKYVCKLLFIFLLGHDIDFGHMEAVNLLSSNKYTEKQIGYLFISVLVNSNSELIRLINNAIKNDLASRNPTFMCLALHCIANVGSREMGEAFAADIPRILVAGDSMDSVKQSAALCLLRLYKASPDLVPMGEWTARVVHLLNDQHMGVVTAAVSLITCLCKKNPDDFKTCVSLAVSRLSRIVSSASTDLQDYTYYFVPAPWLSVKLLRLLQCYPPPEDAAVKGRLVECLETVLNKAQEPPKSKKVQHSNAKNAILFETISLIIHYDSEPNLLVRACNQLGQFLQHRETNLRYLALESMCTLASSEFSHEAVKTHIDTVINALKTERDVSVRQRAADLLYAMCDRSNAKQIVSEMLRYLETADYAIREEIVLKVAILAEKYAVDYSWYVDTILNLIRIAGDYVSEEVWYRVLQIVTNRDDVQGYAAKTVFEALQAPACHENMVKVGGYILGEFGNLIAGDPRSSPPVQFSLLHSKFHLCSVATRALLLSTYIKFINLFPETKATIQGVLRAGSQLRNADVELQQRAVEYLTLSSVASTDVLATVLEEMPPFPERESSILAKLKRKKGPGAGSALDDGRRDPSSNDINGGMEPTPSTVSTPSPSADLLGLRAAPPPAAPPASAGAGNLLVDVFDGPAAQPSLGPTPEEAFLSELEPPAPESPMALLADPAPAADPGPEDIGPPIPEADELLNKFVCKNNGVLFENQLLQIGVKSEFRQNLGRMYLFYGNKTSVQFQNFSPTVVHPGDLQTQLAVQTKRVAAQVDGGAQVQQVLNIECLRDFLTPPLLSVRFRYGGAPQALTLKLPVTINKFFQPTEMAAQDFFQRWKQLSLPQQEAQKIFKANHPMDAEVTKAKLLGFGSALLDNVDPNPENFVGAGIIQTKALQVGCLLRLEPNAQAQMYRLTLRTSKEPVSRHLCELLAQQF [AP2A1] | 0.878 | 2.23 | 52 °C | 51.9 °C | -0.103 | -0.0177
7 | MPEAPPLLLAAVLLGLVLLVVLLLLLRHWGWGLCLIGWNEFILQPIHNLLMGDTKEQRILNHVLQHAEPGNAQSVLEAIDTYCEQKEWAMNVGDKKGKIVDAVIQEHQPSVLLELGAYCGYSAVRMARLLSPGARLITIEINPDCAAITQRMVDFAGVKDKVTLVVGASQDIIPQLKKKYDVDTLDMVFLDHWKDRYLPDTLLLEECGLLRKGTVLLADNVICPGAPDFLAHVRGSSCFECTHYQSFLEYREVVDGLEKAIYKGPGSEAGP [COMT] | 3.01 | 5.26 | 52.9 °C | 54.2 °C | -0.128 | -0.0917
